What was measured:
Assay in all cases: EMSA
[1] = tested on: Zif268 3F peptide; conditions: calibration reference; value from ref 51; Buffer, salt, pH and temperature not given (methods cited); phage ELISA with 0.125-32 nM DNA; EMSA with 5-fold dilution series of TNT-expressed protein; cited from earlier work
[2] = tested on: VP16-6ZfFLO11/F2-F1 (engineered); conditions: Buffer, salt, pH and temperature not given (methods cited); phage ELISA with 0.125-32 nM DNA; EMSA with 5-fold dilution series of TNT-expressed protein
[3] = tested on: VP64-6ZfFLO11/F2-F1 (engineered); conditions: Buffer, salt, pH and temperature not given (methods cited); phage ELISA with 0.125-32 nM DNA; EMSA with 5-fold dilution series of TNT-expressed protein

| Substance | Kd [1] | binding signal (fold stronger than 3F rTFs) [2] | binding signal (fold stronger than 3F rTFs) [3] |
| --- | --- | --- | --- |
| Zif268 cognate 9-bp site | 2 nM |  |  |
| TFLO11/F2-F1 (also called F1-F2) 31-bp oligo |  | 10 | 10 |

— PMC1939876
